In patent publication US20080274967:

Tests used:
[1] = target: T1, PEDF S227A variant
T1 chain: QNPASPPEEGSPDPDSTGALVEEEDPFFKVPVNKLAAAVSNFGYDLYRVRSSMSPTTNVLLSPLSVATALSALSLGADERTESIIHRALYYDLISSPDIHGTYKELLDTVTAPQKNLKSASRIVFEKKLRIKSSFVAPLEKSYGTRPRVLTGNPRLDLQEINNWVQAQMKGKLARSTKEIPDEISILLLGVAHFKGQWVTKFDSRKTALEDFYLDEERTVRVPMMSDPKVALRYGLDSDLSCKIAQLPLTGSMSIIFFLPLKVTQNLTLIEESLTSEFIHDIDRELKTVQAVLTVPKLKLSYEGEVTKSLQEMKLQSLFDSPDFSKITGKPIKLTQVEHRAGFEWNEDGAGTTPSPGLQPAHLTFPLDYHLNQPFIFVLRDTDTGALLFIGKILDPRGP

[2] = target: T2, Recombinant human pigment epithelium derived factor (rPEDF)
T2 chain: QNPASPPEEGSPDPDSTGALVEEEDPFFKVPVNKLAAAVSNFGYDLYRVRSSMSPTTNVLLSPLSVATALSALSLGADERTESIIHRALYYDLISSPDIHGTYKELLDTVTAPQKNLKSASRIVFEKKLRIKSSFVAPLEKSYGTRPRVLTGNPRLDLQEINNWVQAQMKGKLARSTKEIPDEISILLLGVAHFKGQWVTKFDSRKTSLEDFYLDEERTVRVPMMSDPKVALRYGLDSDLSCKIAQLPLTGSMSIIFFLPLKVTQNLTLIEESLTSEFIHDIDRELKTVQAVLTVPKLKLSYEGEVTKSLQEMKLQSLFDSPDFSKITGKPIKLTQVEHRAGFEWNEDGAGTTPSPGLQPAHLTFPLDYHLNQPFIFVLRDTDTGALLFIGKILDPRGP

[3] = target: T3, PEDF purified from human plasma (plPEDF)
T3 chain: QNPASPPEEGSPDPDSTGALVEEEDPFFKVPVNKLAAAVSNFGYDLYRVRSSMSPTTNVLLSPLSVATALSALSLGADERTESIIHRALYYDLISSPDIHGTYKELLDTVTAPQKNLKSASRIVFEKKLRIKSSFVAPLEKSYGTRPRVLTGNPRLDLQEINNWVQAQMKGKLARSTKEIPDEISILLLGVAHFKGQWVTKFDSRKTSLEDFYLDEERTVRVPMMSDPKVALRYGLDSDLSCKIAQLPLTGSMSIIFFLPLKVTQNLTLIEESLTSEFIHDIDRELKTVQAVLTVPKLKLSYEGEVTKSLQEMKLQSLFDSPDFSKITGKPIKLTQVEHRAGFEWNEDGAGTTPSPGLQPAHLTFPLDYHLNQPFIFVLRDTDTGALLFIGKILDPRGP

[4] = target: T4, PEDF AAA variant (S24,114, 227A)
T4 chain: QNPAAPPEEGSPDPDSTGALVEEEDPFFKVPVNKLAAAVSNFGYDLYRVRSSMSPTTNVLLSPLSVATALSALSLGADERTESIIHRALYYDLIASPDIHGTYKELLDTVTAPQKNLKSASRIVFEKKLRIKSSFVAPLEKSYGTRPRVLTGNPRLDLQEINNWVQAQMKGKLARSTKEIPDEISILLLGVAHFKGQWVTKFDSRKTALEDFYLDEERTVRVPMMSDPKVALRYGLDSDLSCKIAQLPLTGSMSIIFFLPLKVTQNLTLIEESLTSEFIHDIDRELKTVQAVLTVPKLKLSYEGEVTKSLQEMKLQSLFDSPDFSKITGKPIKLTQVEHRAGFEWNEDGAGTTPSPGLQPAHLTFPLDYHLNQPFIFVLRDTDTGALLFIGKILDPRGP

[5] = target: T5, PEDF EEE variant (S24,114, 227E)
T5 chain: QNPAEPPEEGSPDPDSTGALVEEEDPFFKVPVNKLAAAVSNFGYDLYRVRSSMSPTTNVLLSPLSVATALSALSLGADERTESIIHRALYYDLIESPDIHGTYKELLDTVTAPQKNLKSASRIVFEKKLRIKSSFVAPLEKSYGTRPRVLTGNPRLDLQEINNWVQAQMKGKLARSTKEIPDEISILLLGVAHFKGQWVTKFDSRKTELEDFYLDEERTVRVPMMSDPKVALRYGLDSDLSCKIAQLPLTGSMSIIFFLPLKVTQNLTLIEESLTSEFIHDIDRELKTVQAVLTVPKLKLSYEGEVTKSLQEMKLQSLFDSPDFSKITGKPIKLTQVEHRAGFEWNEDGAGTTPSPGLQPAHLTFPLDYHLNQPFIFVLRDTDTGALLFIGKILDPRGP

[6] = target: T6, PEDF S227E variant
T6 chain: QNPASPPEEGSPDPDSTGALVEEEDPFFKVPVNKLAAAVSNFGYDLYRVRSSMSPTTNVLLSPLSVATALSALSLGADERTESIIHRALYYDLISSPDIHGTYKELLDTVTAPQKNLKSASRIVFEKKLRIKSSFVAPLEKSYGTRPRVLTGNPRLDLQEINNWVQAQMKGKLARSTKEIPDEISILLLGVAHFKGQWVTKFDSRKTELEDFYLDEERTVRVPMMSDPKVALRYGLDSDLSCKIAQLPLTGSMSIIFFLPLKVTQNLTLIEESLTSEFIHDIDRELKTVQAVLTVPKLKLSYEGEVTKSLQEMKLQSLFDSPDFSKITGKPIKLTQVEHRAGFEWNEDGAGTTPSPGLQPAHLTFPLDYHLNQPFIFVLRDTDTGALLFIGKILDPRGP

[7] = target: T7, PEDF AAE variant (S24,114A, 227E)
T7 chain: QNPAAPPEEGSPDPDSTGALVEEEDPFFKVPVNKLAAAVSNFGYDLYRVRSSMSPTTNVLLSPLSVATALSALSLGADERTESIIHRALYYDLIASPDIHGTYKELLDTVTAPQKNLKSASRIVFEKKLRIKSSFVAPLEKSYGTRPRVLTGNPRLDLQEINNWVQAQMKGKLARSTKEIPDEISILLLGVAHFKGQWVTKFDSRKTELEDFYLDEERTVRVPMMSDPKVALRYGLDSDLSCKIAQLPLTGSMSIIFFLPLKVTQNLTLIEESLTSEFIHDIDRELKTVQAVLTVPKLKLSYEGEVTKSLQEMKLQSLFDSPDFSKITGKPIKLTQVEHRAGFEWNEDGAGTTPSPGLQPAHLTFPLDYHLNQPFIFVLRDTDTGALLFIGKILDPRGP

[8] = target: T8, PEDF EEA variant (S24,114E, 227A)
T8 chain: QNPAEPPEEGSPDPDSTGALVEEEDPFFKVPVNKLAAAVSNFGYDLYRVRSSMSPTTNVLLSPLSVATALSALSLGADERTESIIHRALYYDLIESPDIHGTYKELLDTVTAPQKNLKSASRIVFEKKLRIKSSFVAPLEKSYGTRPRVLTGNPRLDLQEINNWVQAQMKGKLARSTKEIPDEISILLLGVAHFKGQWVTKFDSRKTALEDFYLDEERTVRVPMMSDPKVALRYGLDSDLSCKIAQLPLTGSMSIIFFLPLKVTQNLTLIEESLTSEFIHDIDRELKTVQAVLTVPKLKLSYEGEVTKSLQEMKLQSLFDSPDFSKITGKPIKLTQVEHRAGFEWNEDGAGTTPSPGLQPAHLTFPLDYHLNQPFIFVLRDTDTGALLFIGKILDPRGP

B1: Recombinant human CK2 (casein kinase CK2) (protein)
chain: MSGPVPSRARVYTDVNTHRPREYWDYESHVVEWGNQDDYQLVRKLGRGKYSEVFEAINITNNEKVVVKILKPVKKKKIKREIKILENLRGGPNIITLADIVKDPVSRTPALVFEHVNNTDFKQLYQTLTDYDIRFYMYEILKALDYCHSMGIMHRDVKPHNVMIDHEHRKLRLIDWGLAEFYHPGQEYNVRVASRYFKGPELLVDYQMYDYSLDMWSLGCMLASMIFRKEPFFHGHDNYDQLVRIAKVLGTEDLYDYIDKYNIELDPRFNDILGRHSRKRWERFVHSENQHLVSPEALDFLDKLLRYDHQSRLTAREAMEHPYFYTVVKDQARMGSSSMPGGSTPVSSANMMSGISSVPTPSPLGPLAGSPVIAAANPLGMPVPAAAGAQQ
in vitro phosphorylation by CK2 ([γ32P]-ATP, SDS-PAGE, autoradiography) [1]: both readily phosphorylated by CK2 | in vitro phosphorylation by CK2 ([γ32P]-ATP, SDS-PAGE, autoradiography) [2]: the phosphorylation of the plPEDF by CK2 was significantly lower than CK2 phosphorylation of the rPEDF | in vitro phosphorylation by CK2 ([γ32P]-ATP, SDS-PAGE, autoradiography) [3]: the phosphorylation of the plPEDF by CK2 was significantly lower than CK2 phosphorylation of the rPEDF | in vitro phosphorylation by CK2 [4]: The AAE and the AAA variants almost completely abolished CK2 phosphorylation | in vitro phosphorylation by CK2 [5]: the triple mutants EEE and EEA were readily phosphorylated by CK2 | in vitro phosphorylation by CK2 ([γ32P]-ATP, SDS-PAGE, autoradiography) [6]: both readily phosphorylated by CK2 | in vitro phosphorylation by CK2 [7]: The AAE and the AAA variants almost completely abolished CK2 phosphorylation | in vitro phosphorylation by CK2 [8]: the triple mutants EEE and EEA were readily phosphorylated by CK2
